Measurements reported in article PMC12102759 (2025).

B1: MXI1 peptide 6-21 (Max-interacting protein 1), 16-mer library wild type / SIN3A PAH2 (SIN3A PAH domain, residues 295-383) (parent complex)
chain 1: MINVQRLLEAAEFLER
chain 2: SLQNNQPVEFNHAINYVNKIKNRFQGQPDIYKAFLEILHTYQKEQRNAKEAGGNYTPALTEQEVYAQVARLFKNQEDLLSEFGQFLPDA
B2: PEX5 peptide 110-125 (Peroxisomal targeting signal 1 receptor), 16-mer library wild type / PEX14 Pex14 (PEX14 PEX14, residues 16-84) (parent complex)
chain 1: ADLALSENWAQEFLAA
chain 2: TPGSENVLPREPLIATAVKFLQNSRVRQSPLATRRAFLKKKGLTDEEIDMAFQQSGTAADEPSSLGPAT

Variants of: B1
Assay: proteomic peptide phage display deep mutational scan (ProP-PD DMS): M13 P8 16-mer library selected against immobilised GST-tagged bait for four days (rounds), NGS of the eluted pools per day and pseudo-replica; bait immobilised on MaxiSorp plates (10 µg), library pre-cleared on GST, 2 h binding at 4 °C, five washes; one round per day, days 1-4; value from days 2 and 3

Q: For chain 1 MINVQRLLEAIEFLER, which screen value is on record?
A: 0.000346 average fractional NGS count over selection days 2 and 3 (reads of this peptide / all reads for the bait, averaged over …

Q: For chain 1 MINVQRLLEAWEFLER, which screen value is on record?
A: 0.00145 average fractional NGS count over selection days 2 and 3 (reads of this peptide / all reads for the bait, averaged over …

Q: For chain 1 MINVQRLLEAEEFLER, which screen value is on record?
A: 0.000155 average fractional NGS count over selection days 2 and 3 (reads of this peptide / all reads for the bait, averaged over …

Q: Which screen value does the source give for chain 1 MINTQRLLEAAEFLER here?
A: 0.00342 average fractional NGS count over selection days 2 and 3 (reads of this peptide / all reads for the bait, averaged over …

Q: How did the screen value turn out when chain 1 MINVQRLLEWAEFLER was run?
A: 0.000448 average fractional NGS count over selection days 2 and 3 (reads of this peptide / all reads for the bait, averaged over …

Q: Which screen value does the source give for chain 1 MIEVQRLLEAAEFLER here?
A: 0.000543 average fractional NGS count over selection days 2 and 3 (reads of this peptide / all reads for the bait, averaged over …

Q: Which screen value does the source give for chain 1 MINVHRLLEAAEFLER here?
A: 0.00355 average fractional NGS count over selection days 2 and 3 (reads of this peptide / all reads for the bait, averaged over …

Q: How did the screen value turn out when chain 1 MENVQRLLEAAEFLER was run?
A: 0.00021 average fractional NGS count over selection days 2 and 3 (reads of this peptide / all reads for the bait, averaged over …

Q: How did the screen value turn out when chain 1 MLNVQRLLEAAEFLER was run?
A: 0.000364 average fractional NGS count over selection days 2 and 3 (reads of this peptide / all reads for the bait, averaged over …

Q: For chain 1 MINVQRLLEAAEFYER, which screen value is on record?
A: 0.00247 average fractional NGS count over selection days 2 and 3 (reads of this peptide / all reads for the bait, averaged over …

Q: Which screen value does the source give for chain 1 KINVQRLLEAAEFLER here?
A: 0.000747 average fractional NGS count over selection days 2 and 3 (reads of this peptide / all reads for the bait, averaged over …

Q: For chain 1 MINVQRLLEAAERLER, which screen value is on record?
A: 0.00192 average fractional NGS count over selection days 2 and 3 (reads of this peptide / all reads for the bait, averaged over …

Q: chain 1 MINVQRLLEAAEQLER was tested. Which screen value did it give?
A: 0.00155 average fractional NGS count over selection days 2 and 3 (reads of this peptide / all reads for the bait, averaged over …

Q: For chain 1 MINVQRLLSAAEFLER, which screen value is on record?
A: 0.0016 average fractional NGS count over selection days 2 and 3 (reads of this peptide / all reads for the bait, averaged over …

Variants of: B2
Assay: as above

Q: chain 1 AALALSENWAQEFLAA was tested. Which screen value did it give?
A: 0.00157 average fractional NGS count over selection days 2 and 3 (reads of this peptide / all reads for the bait, averaged over …

Q: With chain 1 ARLALSENWAQEFLAA as the variant, how does the screen value read?
A: 0.000895 average fractional NGS count over selection days 2 and 3 (reads of this peptide / all reads for the bait, averaged over …

Q: With chain 1 ALLALSENWAQEFLAA as the variant, how does the screen value read?
A: 0.000809 average fractional NGS count over selection days 2 and 3 (reads of this peptide / all reads for the bait, averaged over …

Q: For chain 1 AKLALSENWAQEFLAA, which screen value is on record?
A: 0.000496 average fractional NGS count over selection days 2 and 3 (reads of this peptide / all reads for the bait, averaged over …

Q: chain 1 AWLALSENWAQEFLAA was tested. Which screen value did it give?
A: 0.000382 average fractional NGS count over selection days 2 and 3 (reads of this peptide / all reads for the bait, averaged over …

Q: Which screen value does the source give for chain 1 AELALSENWAQEFLAA here?
A: 0.000736 average fractional NGS count over selection days 2 and 3 (reads of this peptide / all reads for the bait, averaged over …

Q: For chain 1 AHLALSENWAQEFLAA, which screen value is on record?
A: 0.004 average fractional NGS count over selection days 2 and 3 (reads of this peptide / all reads for the bait, averaged over …

Q: With chain 1 ADLALSENWAQIFLAA as the variant, how does the screen value read?
A: 0.00181 average fractional NGS count over selection days 2 and 3 (reads of this peptide / all reads for the bait, averaged over …

Q: For chain 1 ADLALSENWAQSFLAA, which screen value is on record?
A: 0.00196 average fractional NGS count over selection days 2 and 3 (reads of this peptide / all reads for the bait, averaged over …

Q: Which screen value does the source give for chain 1 ADLALSENWAQHFLAA here?
A: 0.00205 average fractional NGS count over selection days 2 and 3 (reads of this peptide / all reads for the bait, averaged over …

Q: Which screen value does the source give for chain 1 ADLALSENWAQVFLAA here?
A: 0.00245 average fractional NGS count over selection days 2 and 3 (reads of this peptide / all reads for the bait, averaged over …

Q: With chain 1 ADLALSENWAQPFLAA as the variant, how does the screen value read?
A: 0.000686 average fractional NGS count over selection days 2 and 3 (reads of this peptide / all reads for the bait, averaged over …

Q: chain 1 ADLALSENWAQMFLAA was tested. Which screen value did it give?
A: 0.000654 average fractional NGS count over selection days 2 and 3 (reads of this peptide / all reads for the bait, averaged over …

Q: With chain 1 ADMALSENWAQEFLAA as the variant, how does the screen value read?
A: 0.00299 average fractional NGS count over selection days 2 and 3 (reads of this peptide / all reads for the bait, averaged over …

Q: Which screen value does the source give for chain 1 ADIALSENWAQEFLAA here?
A: 0.000729 average fractional NGS count over selection days 2 and 3 (reads of this peptide / all reads for the bait, averaged over …

Q: With chain 1 ADWALSENWAQEFLAA as the variant, how does the screen value read?
A: 0.000685 average fractional NGS count over selection days 2 and 3 (reads of this peptide / all reads for the bait, averaged over …

Q: chain 1 ADTALSENWAQEFLAA was tested. Which screen value did it give?
A: 0.000563 average fractional NGS count over selection days 2 and 3 (reads of this peptide / all reads for the bait, averaged over …

Q: How did the screen value turn out when chain 1 ADPALSENWAQEFLAA was run?
A: 0.00046 average fractional NGS count over selection days 2 and 3 (reads of this peptide / all reads for the bait, averaged over …

Q: For chain 1 ADFALSENWAQEFLAA, which screen value is on record?
A: 0.000885 average fractional NGS count over selection days 2 and 3 (reads of this peptide / all reads for the bait, averaged over …

Q: For chain 1 ADNALSENWAQEFLAA, which screen value is on record?
A: 0.000429 average fractional NGS count over selection days 2 and 3 (reads of this peptide / all reads for the bait, averaged over …

Q: With chain 1 ADHALSENWAQEFLAA as the variant, how does the screen value read?
A: 0.00618 average fractional NGS count over selection days 2 and 3 (reads of this peptide / all reads for the bait, averaged over …

Q: chain 1 ADQALSENWAQEFLAA was tested. Which screen value did it give?
A: 0.00182 average fractional NGS count over selection days 2 and 3 (reads of this peptide / all reads for the bait, averaged over …

Q: For chain 1 ADLALSENWAWEFLAA, which screen value is on record?
A: 0.0122 average fractional NGS count over selection days 2 and 3 (reads of this peptide / all reads for the bait, averaged over …

Q: chain 1 ADLALSENWALEFLAA was tested. Which screen value did it give?
A: 0.00081 average fractional NGS count over selection days 2 and 3 (reads of this peptide / all reads for the bait, averaged over …

Q: Which screen value does the source give for chain 1 ADLALSENWAFEFLAA here?
A: 0.000569 average fractional NGS count over selection days 2 and 3 (reads of this peptide / all reads for the bait, averaged over …

Q: For chain 1 ADLALSENWAYEFLAA, which screen value is on record?
A: 0.000918 average fractional NGS count over selection days 2 and 3 (reads of this peptide / all reads for the bait, averaged over …

Q: Which screen value does the source give for chain 1 ADLALSRNWAQEFLAA here?
A: 0.00247 average fractional NGS count over selection days 2 and 3 (reads of this peptide / all reads for the bait, averaged over …

Q: For chain 1 ADLALSTNWAQEFLAA, which screen value is on record?
A: 0.00188 average fractional NGS count over selection days 2 and 3 (reads of this peptide / all reads for the bait, averaged over …

Q: How did the screen value turn out when chain 1 ADLALSWNWAQEFLAA was run?
A: 0.0042 average fractional NGS count over selection days 2 and 3 (reads of this peptide / all reads for the bait, averaged over …

Q: For chain 1 ADLALSSNWAQEFLAA, which screen value is on record?
A: 0.00412 average fractional NGS count over selection days 2 and 3 (reads of this peptide / all reads for the bait, averaged over …

Q: How did the screen value turn out when chain 1 ADLALSANWAQEFLAA was run?
A: 0.00398 average fractional NGS count over selection days 2 and 3 (reads of this peptide / all reads for the bait, averaged over …

Q: chain 1 ADLALSLNWAQEFLAA was tested. Which screen value did it give?
A: 0.00102 average fractional NGS count over selection days 2 and 3 (reads of this peptide / all reads for the bait, averaged over …

Q: For chain 1 ADLALSVNWAQEFLAA, which screen value is on record?
A: 0.000676 average fractional NGS count over selection days 2 and 3 (reads of this peptide / all reads for the bait, averaged over …

Q: For chain 1 ADLALSGNWAQEFLAA, which screen value is on record?
A: 0.00129 average fractional NGS count over selection days 2 and 3 (reads of this peptide / all reads for the bait, averaged over …

Q: Which screen value does the source give for chain 1 ADLALSYNWAQEFLAA here?
A: 0.00176 average fractional NGS count over selection days 2 and 3 (reads of this peptide / all reads for the bait, averaged over …

Q: chain 1 ADLALSMNWAQEFLAA was tested. Which screen value did it give?
A: 0.0015 average fractional NGS count over selection days 2 and 3 (reads of this peptide / all reads for the bait, averaged over …

Q: How did the screen value turn out when chain 1 ADLALSNNWAQEFLAA was run?
A: 0.00129 average fractional NGS count over selection days 2 and 3 (reads of this peptide / all reads for the bait, averaged over …

Q: With chain 1 ADLALSHNWAQEFLAA as the variant, how does the screen value read?
A: 0.00742 average fractional NGS count over selection days 2 and 3 (reads of this peptide / all reads for the bait, averaged over …

Q: For chain 1 ADLALSDNWAQEFLAA, which screen value is on record?
A: 0.00312 average fractional NGS count over selection days 2 and 3 (reads of this peptide / all reads for the bait, averaged over …

Q: With chain 1 ADLALSEHWAQEFLAA as the variant, how does the screen value read?
A: 0.00161 average fractional NGS count over selection days 2 and 3 (reads of this peptide / all reads for the bait, averaged over …

Q: With chain 1 ADLALSESWAQEFLAA as the variant, how does the screen value read?
A: 0.00269 average fractional NGS count over selection days 2 and 3 (reads of this peptide / all reads for the bait, averaged over …

Q: With chain 1 ADLALSEWWAQEFLAA as the variant, how does the screen value read?
A: 0.00165 average fractional NGS count over selection days 2 and 3 (reads of this peptide / all reads for the bait, averaged over …
